T1: CD300c antigen (11832-H08H, Sino Biological) (UniProt Q08708 21-183)
T1 construct: Bought recombinant antigen coated on ELISA plates; the same entry is used for it
T1 sequence (looked up): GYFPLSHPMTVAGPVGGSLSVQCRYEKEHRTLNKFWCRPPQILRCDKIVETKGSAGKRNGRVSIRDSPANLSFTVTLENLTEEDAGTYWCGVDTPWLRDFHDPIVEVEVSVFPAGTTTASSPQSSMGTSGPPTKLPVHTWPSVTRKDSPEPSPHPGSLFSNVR

T2: mouse CD300c antigen (mouse)
T2 sequence (A2A7V7 whole entry, looked up): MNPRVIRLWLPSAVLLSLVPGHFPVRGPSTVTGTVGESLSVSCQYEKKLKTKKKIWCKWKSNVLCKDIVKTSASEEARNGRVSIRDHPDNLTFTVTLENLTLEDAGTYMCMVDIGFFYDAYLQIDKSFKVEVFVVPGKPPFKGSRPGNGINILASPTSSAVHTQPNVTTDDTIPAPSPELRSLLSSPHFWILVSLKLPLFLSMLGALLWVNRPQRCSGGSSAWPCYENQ

T3: CD300a antigen (12449-H08H, Sino Biological) (UniProt Q9UGN4 18-180)
T3 construct: Bought recombinant antigen
T3 sequence (looked up): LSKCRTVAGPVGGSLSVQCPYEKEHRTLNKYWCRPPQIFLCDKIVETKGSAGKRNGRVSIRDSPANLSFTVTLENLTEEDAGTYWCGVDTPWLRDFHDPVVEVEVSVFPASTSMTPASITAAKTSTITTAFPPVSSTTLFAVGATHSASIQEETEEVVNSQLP


How the values were obtained:
[1] = target: T1, CD300c antigen (11832-H08H, Sino …); experiment: binding ELISA, CD300c antigen coated
mouse CD300c antigen = target: T2, mouse CD300c antigen; experiment: cell-based or functional assay
[2] = target: T3, CD300a antigen (12449-H08H, Sino …); experiment: binding ELISA, antigen coated on plate

Row | Binder | EC50 [1] [µg/mL] | cancer cell proliferation inhibitory effect, CT26 mouse colorectal cancer cell line, CCK-8, 10 ug/mL antibody, 5 days (mouse CD300c antigen) [%] | binding result [2]
1 | anti-CD300c monoclonal antibody SK13 (antibody, V domains shown, expressed as heavy and light chains in 293T cells, protein A purified) VH: RVQLLESGGGLVQPGGSLRLSCAASGFTFSDYAMSWVRQAPGKGLEWVSSISSSSSYIYYTDSVKGRFTISRDNSKNTLYLQMNSLRAEDTAVYYCARGGYGFDYWGQGTLVTVSS VL: EIVLTQSPGTLSLSPGERATLSCRASQSISSYLNWYQQKPGQAPRLLIYSASSRPQGIPDRFSGSGSGTDFTLTISRLEPEDFAVYYCQQYDDLPFTFGQGTKVEIK | ≤ 0.2 | – | –
2 | anti-CD300c monoclonal antibody CL4 (antibody, V domains shown, expressed as heavy and light chains in 293T cells, protein A purified) VH: RVQLLESGGGLVQPGGSLRLSCAASGFTFGSNYMSWVRQAPGKGLEWVSTISGSGTSTYYADSLKGRFTISRDNSKNTLYLQMNSLRAEDTAVYYCARGMWGMDVWGQGTLVTVSS VL: QSVLTQPPSASGTPGQRVTISCTGKHRHTVNWYQLLPGTAPKLLIYLDSERPSGVPDRFSGSKSGTSASLAISGLRSEDEADYYCQSYDSSSVVFGGGTKLTVL | ≤ 0.2 | – | –
3 | anti-CD300c monoclonal antibody CL5 (antibody, V domains shown, expressed as heavy and light chains in 293T cells, protein A purified) VH: RVQLLESGGGLVQPGGSLRLSCAASGFTFSSYAMHWVRQAPGKGLEWVSSISGGGYGTYYADSVKGRFTISRDNSKNTLYLQMNSLRAEDTAVYYCARSTVWAFDIWGQGTLVTVSS VL: QSVLTQPPSASGTPGQRVTISCSGNNIGSKSVHWYQQLPGTAPKLLIYDVSKRPSERPDRFSGSKSGTSASLAISDLRSEDEADYYCQSFDSSGTWIFGGGTKLTVL | ≤ 0.2 | – | –
4 | anti-CD300c monoclonal antibody SK14 (antibody, V domains shown, expressed as heavy and light chains in 293T cells, protein A purified) VH: EVQLLESGGGLVQPGGSLRLSCAASGFTFSNFAIAWVRQAPGKGLEWVSAISGRGTSTYYADSVKGRFTISRDNSKNTLYLQMNSLRAEDTAVYYCARGVSGFDSWGQGTLVTVSS VL: EIVLTQSPGTLSLSPGERATLSCRASQSISSHLAWYQQKPGQAPRLLIYDTSNRATGIPDRFSGSGSGTDFTLTISRLEPEDFAVYYCQQSYSTPFTFGQGTKVEIK | ≤ 0.2 | – | –
5 | anti-CD300c monoclonal antibody SL18 (antibody, V domains shown, expressed as heavy and light chains in 293T cells, protein A purified) VH: RVQLLESGGGLVQPGGSLRLSCAASGFTFSDYHMHWVRQAPGKGLEWVSTISSSGGYTYYAESVKSRFTISRDNSKNTLYLQMNSLRAEDTAVYYCARSIRLPLDYWGQGTLVTVSS VL: QSVLTQPPSASGTPGQRVTISCSGNNIGSKGVHWYQQLPGTAPKLLIYEDSKRPSGVRDRFSGSKSGTSASLAISGLRSEDEADYYCQSYDSTKGVVFGGGTKLTVL | ≤ 0.2 | 38 | –
6 | anti-CD300c monoclonal antibody CL10 (antibody, V domains shown, expressed as heavy and light chains in 293T cells, protein A purified) VH: EVQLLESGGGLVQPGGSLRLSCAASGFTFSSYGMHWVRQAPGKGLEWVSAISGSGGSTYYADSVKGRFTISRDNSKNTLYLQMNSLRAEDTAVYYCASGYGLMDVWGQGTLVTVSS VL: QSVLTQPPSASGTPGQRVTISCTRSSGIIASNYVQWYQQLPGTAPKLLIYRNNQRPSGVPDRFSGSKSGTSASLAISGLRSEDEADYYCSSYAGNNNLVFGGGTKLTVL | ≤ 0.2 | 15 | –
7 | anti-CD300c monoclonal antibody CK2 (antibody, V domains shown, expressed as heavy and light chains in 293T cells, protein A purified) VH: EVQLLESGGGLVQPGGSLRLSCAASGFTFSSYGMHWVRQAPGKGLEWVSAISGSGTSIYYADSVKGRFTISRDNSKNTLYLQMNSLRAEDTAVYYCARGGTAFDYWGQGTLVTVSS VL: EIVLTQSPGTLSLSPGERATLSCRASQRSDNYLAWYQQKPGQAPRLLIYDASNRATGIPDRFSGSGSGTDFTLTISRLEPEDFAVYYCQQSYSTPFTFGQGTKVETK | ≤ 0.2 | – | –
8 | anti-CD300c monoclonal antibody SK11 (antibody, V domains shown, expressed as heavy and light chains in 293T cells, protein A purified) VH: RVQLLESGGGLVQPGGSLRLSCAASGFTFSTYGMHWVRQAPGKGLEWVSAISGSGGSTYYADSVKGRFTISRDNSKNTLYLQMNSLRAEDTAVYYCARGLSGLDYWGQGTLVTVSS VL: EIVLTQSPGTLSLSPGERATLSCRSSQGITNYLAWYQQKPGQAPRLLIYDASNRATGIPDRFSGSGSGTDFTLTISRLEPEDFAVYYCQQSYSTPLTFGQGTKVEIK | ≤ 0.2 | – | –
9 | anti-CD300c monoclonal antibody CL6 (antibody, V domains shown, expressed as heavy and light chains in 293T cells, protein A purified) VH: EVQLLESGGGLVQPGGSLRLSCAASGFTFSSYGMHWVRQAPGKGLEWVSAISGSGGSTYYADSVKGRFTISRDNSKNTLYLQMNSLRAEDTAVYYCAVSGAGRGFFDYWGQGTLVTVSS VL: QSVLTQPPSASGTPGQRVTISCSGSSSNIGSNYVYWYQQLPGTAPKLLIYEDNKRPSGVPDRFSGSKSGTSASLAISGLRSEDEADYYCSSYTSSSTVIFGGGTKLTVL | ≤ 0.2 | – | –
10 | anti-CD300c monoclonal antibody SK17 (antibody, V domains shown, expressed as heavy and light chains in 293T cells, protein A purified) VH: EVQLLESGGGLVQPGGSLRLSCAASGFTFSSYYWSWVRQAPGKGLEWVSTITGSGGSTDYANSVKGRFTISRDNSKNTLYLQMNSLRAEDTAVYYCATGGGIFDYWGQGTLVTVSS VL: EIVLTQSPGTLSLSPGERATLSCQASQTISNYLNWYQQKPGQAPRLLIYDASNRATGIPDRFSGSGSGTDFTLTISRLEPEDFAVYYCQQYNSYPPSFGQGTKVEIK | ≤ 0.2 | – | –
11 | anti-CD300c monoclonal antibody CK1 (antibody, V domains shown, Selected as scFv phage clone (kappa library); expressed from separate heavy and light chain vectors in 293T cells, purified on protein A) VH: EVQLLESGGGLVQPGGSLRLSCAASGFTFSRYAMTWVRQAPGKGLEWVSSMSGTGGTTYYADSVKGRFTISRDNSKNTLYLQMNSLRAEDTAVYYCARGAYGFDHWGQGTLVTVSS VL: EIVLTQSPGTLSLSPGERATLSCRASQSIGNYLNWYQQKPGQAPRLLIYDASNLETGIPDRFSGSGSGTDFTLTISRLEPEDFAVYYCQQSSAIPYTFGQGTKVEIK | ≤ 0.2 | – | –
12 | anti-CD300c monoclonal antibody CL7 (antibody, V domains shown, expressed as heavy and light chains in 293T cells, protein A purified) VH: EVQLLESGGGLVQPGGSLRLSCAASGFTFSRYAMSWVRQAPGKGLEWVSAISGSGGSTYYADSVKGRFTISRDNSKNTLYLQMNSLRAEDTAVYYCARSSQGIFDIWGQGTLVTVSS VL: QSVLTQPPSASGTPGQRVTISCSGNNIGTRRVHWYQQLPDTAPKLLIYSKNNRPSGVPDRFSGSKSGTSASLAISGLRSEDEADYYCAAWDDSLSGPVFGGGTKLTVL | ≤ 0.2 | 66 | no binding
13 | anti-CD300c monoclonal antibody CL9 (antibody, V domains shown, expressed as heavy and light chains in 293T cells, protein A purified) VH: EVQLLESGGGLVQPGGSLRLSCAASGFTFSSYYWSWVRQAPGKGLEWVSAISGSGGSTYYADSVKGRFTISRDNSKNTLYLQMNSLRAEDTAVYYCARIDVYGFDIWGQGTLVTVSS VL: QSVLTQPPSASGTPGQRVTISCSGSTSNIGTNYVYWYQQLPGTAPKLLIYDNNNRPSGVPDRFSGSKSGTSASLAISGLRSEDEADYYCQTWDSSTDVVFGGGTKLTVL | ≤ 0.2 | – | –
14 | anti-CD300c monoclonal antibody SK12 (antibody, V domains shown, expressed as heavy and light chains in 293T cells, protein A purified) VH: RVQLLESGGGLVQPGGSLRLSCAASGFTFSSYAMHWVRQAPGKGLEWVSAISGSGGDTYHADSVKGRFTISRDNSKNTLYLQMNSLRAEDTAVYYCTRGLSGFDYWGQGTLVTVSS VL: EIVLTQSPGTLSLSPGERATLSCRASQSISSYLNWYQQKPGQAPRLLIYDASNRAPGIPDRFSGSGSGTDFTLTISRLEPEDFAVYYCQQSYSIPITFGQGTKVEIKF | ≤ 0.2 | – | –

Reference: patent publication EP4349858A1 (CentricsBio, Inc., dated 2024)
